Where two headings read alike, the source gives them in different places.
How the values were obtained:
[1] = target: T1, human alpha-synuclein monomer (human, UniProt P37840 1-140); test: SPR (Biacore 8K), IgG captured on anti-human Fc, aSyn monomer injected
[2] = target: T1, human alpha-synuclein monomer; test: as above; remark: listed apart in the source

Binder | Kd [1] [nM] | Kd [2] [nM]
HC2_LC1 (antibody, V domains shown, humanized 20H4 IgG) VH: EVQLVESGGGLVQPGGSLRLSCAASGFTFSNAAMYWVRQAPGKGLELVSRIRTKPNNYATYHADSVKGRFTISRDNSKNTLYLQMNSLRAEDTAVYYCTADMATGDYWGQGTLVTVSS VL: DIQMTQSPSSLSASVGDRVTITCKASQNINKNLDWYQQKPGKAPKLLIYSTNNLQTGVPSRFSGSGSGTDFTLTISSLQPEDFATYYCYQYKSAWTFGQGTKVEIK | 3.21 | –
HC3_LC1 (antibody, V domains shown, humanized 20H4 IgG) VH: EVQLVESGGGLVQPGGSLRLSCAASGFTFSNAAMYWVRQAPGKGLELVSRIRTKPNNYATYHADSVKGRFTISRDNSKNTVYLQMNSLRAEDTAVYYCTADMATGDYWGQGTLVTVSS VL: DIQMTQSPSSLSASVGDRVTITCKASQNINKNLDWYQQKPGKAPKLLIYSTNNLQTGVPSRFSGSGSGTDFTLTISSLQPEDFATYYCYQYKSAWTFGQGTKVEIK | 2.12 | –
HC5_LC_k3_4 (antibody, V domains shown) VH: EVQLVESGGGLVQPGGSLRLSCAASGFTFSNAAMYWVRQAPGKGLELLARIRTKPNNYATYHADSVKGRFTISRDDSKNTVYLQMNSLRAEDTAVYYCTADMATGDYWGQGTLVTVSS VL: EIVMTQSPATLSLSPGERATLSCKASQNINENLDWYQQKPGQAPRPLIYSTNNLKTGIPARFSGSGSGTDFTLTISSLQPEDFAVYYCYQYKSAWTFGQGTKVEIK | – | 0.15
HC5_LC2 (antibody, V domains shown, humanized 20H4 IgG) VH: EVQLVESGGGLVQPGGSLRLSCAASGFTFSNAAMYWVRQAPGKGLELLARIRTKPNNYATYHADSVKGRFTISRDDSKNTVYLQMNSLRAEDTAVYYCTADMATGDYWGQGTLVTVSS VL: DIQMTQSPSSLSASVGDRVTITCKASQNINKNLDWYQQKPGKAPKPLIYSTNNLQTGVPSRFSGSGSGTDFTLTISSLQPEDFATYYCYQYKSAWTFGQGTKVEIK | 1.56 | –
HC3_LC2 (antibody, V domains shown, humanized 20H4 IgG) VH: EVQLVESGGGLVQPGGSLRLSCAASGFTFSNAAMYWVRQAPGKGLELVSRIRTKPNNYATYHADSVKGRFTISRDNSKNTVYLQMNSLRAEDTAVYYCTADMATGDYWGQGTLVTVSS VL: DIQMTQSPSSLSASVGDRVTITCKASQNINKNLDWYQQKPGKAPKPLIYSTNNLQTGVPSRFSGSGSGTDFTLTISSLQPEDFATYYCYQYKSAWTFGQGTKVEIK | 1.63 | –
HC2_LC3 (antibody, V domains shown, humanized 20H4 IgG) VH: EVQLVESGGGLVQPGGSLRLSCAASGFTFSNAAMYWVRQAPGKGLELVSRIRTKPNNYATYHADSVKGRFTISRDNSKNTLYLQMNSLRAEDTAVYYCTADMATGDYWGQGTLVTVSS VL: DIQMTQSPSSLSASVGDRVTITCKASQNINKNLDWYQQKPGKAPKPLIYSTNNLQTGVPSRFSGSGSGTDYTLTISSLQPEDFATYYCYQYKSAWTFGQGTKVEIK | 6.59 | –
HC5_LC_k3_5 (antibody, V domains shown) VH: EVQLVESGGGLVQPGGSLRLSCAASGFTFSNAAMYWVRQAPGKGLELLARIRTKPNNYATYHADSVKGRFTISRDDSKNTVYLQMNSLRAEDTAVYYCTADMATGDYWGQGTLVTVSS VL: EIVMTQSPATLSLSPGERATLSCKASQNINKQLDWYQQKPGQAPRPLIYSTNNLKTGIPARFSGSGSGTDFTLTISSLQPEDFAVYYCYQYKSAWTFGQGTKVEIK | – | 0.13
HC6_LC_k3_1 (antibody, V domains shown) VH: EVQLVESGGGLVQPGGSLRLSCAASGFTFSNAAMYWVRQAPGKGLELVSRIRTKPNNYATYHADSVKGRFTISRDDSKNTLYLQMNSLRAEDTAVYYCTADMATGDYWGQGTLVTVSS VL: EIVMTQSPATLSLSPGERATLSCKASQNINNNLDWYQQKPGQAPRPLIYSTNNLKTGIPARFSGSGSGTDFTLTISSLQPEDFAVYYCYQYKSAWTFGQGTKVEIK | – | 0.16
HC3_LC3 (antibody, V domains shown, humanized 20H4 IgG) VH: EVQLVESGGGLVQPGGSLRLSCAASGFTFSNAAMYWVRQAPGKGLELVSRIRTKPNNYATYHADSVKGRFTISRDNSKNTVYLQMNSLRAEDTAVYYCTADMATGDYWGQGTLVTVSS VL: DIQMTQSPSSLSASVGDRVTITCKASQNINKNLDWYQQKPGKAPKPLIYSTNNLQTGVPSRFSGSGSGTDYTLTISSLQPEDFATYYCYQYKSAWTFGQGTKVEIK | 5.2 | –
HC5_LC1 (antibody, V domains shown, humanized 20H4 IgG) VH: EVQLVESGGGLVQPGGSLRLSCAASGFTFSNAAMYWVRQAPGKGLELLARIRTKPNNYATYHADSVKGRFTISRDDSKNTVYLQMNSLRAEDTAVYYCTADMATGDYWGQGTLVTVSS VL: DIQMTQSPSSLSASVGDRVTITCKASQNINKNLDWYQQKPGKAPKLLIYSTNNLQTGVPSRFSGSGSGTDFTLTISSLQPEDFATYYCYQYKSAWTFGQGTKVEIK | 1.97 | –
HC6_LC_k3_3 (antibody, V domains shown) VH: EVQLVESGGGLVQPGGSLRLSCAASGFTFSNAAMYWVRQAPGKGLELVSRIRTKPNNYATYHADSVKGRFTISRDDSKNTLYLQMNSLRAEDTAVYYCTADMATGDYWGQGTLVTVSS VL: EIVMTQSPATLSLSPGERATLSCKASQNINQNLDWYQQKPGQAPRPLIYSTNNLKTGIPARFSGSGSGTDFTLTISSLQPEDFAVYYCYQYKSAWTFGQGTKVEIK | – | 0.16
HC5_LC_k3_6 (antibody, V domains shown) VH: EVQLVESGGGLVQPGGSLRLSCAASGFTFSNAAMYWVRQAPGKGLELLARIRTKPNNYATYHADSVKGRFTISRDDSKNTVYLQMNSLRAEDTAVYYCTADMATGDYWGQGTLVTVSS VL: EIVMTQSPATLSLSPGERATLSCKASANINKQLDWYQQKPGQAPRPLIYSTNNLKTGIPARFSGSGSGTDFTLTISSLQPEDFAVYYCYQYKSAWTFGQGTKVEIK | – | 0.19

Next, values leading:

Kd [1] [nM] | Kd [2] [nM] | Binder
– | 0.18 | HC6_LC_k3_4 (antibody, V domains shown) VH: EVQLVESGGGLVQPGGSLRLSCAASGFTFSNAAMYWVRQAPGKGLELVSRIRTKPNNYATYHADSVKGRFTISRDDSKNTLYLQMNSLRAEDTAVYYCTADMATGDYWGQGTLVTVSS VL: EIVMTQSPATLSLSPGERATLSCKASQNINENLDWYQQKPGQAPRPLIYSTNNLKTGIPARFSGSGSGTDFTLTISSLQPEDFAVYYCYQYKSAWTFGQGTKVEIK
– | 0.17 | HC6_LC_k3_10 (antibody, V domains shown) VH: EVQLVESGGGLVQPGGSLRLSCAASGFTFSNAAMYWVRQAPGKGLELVSRIRTKPNNYATYHADSVKGRFTISRDDSKNTLYLQMNSLRAEDTAVYYCTADMATGDYWGQGTLVTVSS VL: EIVMTQSPATLSLSPGERATLSCKASQNISNDLDWYQQKPGQAPRPLIYSTNNLKTGIPARFSGSGSGTDFTLTISSLQPEDFAVYYCYQYKSAWTFGQGTKVEIK
– | 0.22 | HC6_LC_k3_7 (antibody, V domains shown) VH: EVQLVESGGGLVQPGGSLRLSCAASGFTFSNAAMYWVRQAPGKGLELVSRIRTKPNNYATYHADSVKGRFTISRDDSKNTLYLQMNSLRAEDTAVYYCTADMATGDYWGQGTLVTVSS VL: EIVMTQSPATLSLSPGERATLSCKASQNISNYLDWYQQKPGQAPRPLIYSTNNLKTGIPARFSGSGSGTDFTLTISSLQPEDFAVYYCYQYKSAWTFGQGTKVEIK
– | 0.15 | HC6_LC_k3_12 (antibody, V domains shown) VH: EVQLVESGGGLVQPGGSLRLSCAASGFTFSNAAMYWVRQAPGKGLELVSRIRTKPNNYATYHADSVKGRFTISRDDSKNTLYLQMNSLRAEDTAVYYCTADMATGDYWGQGTLVTVSS VL: EIVMTQSPATLSLSPGERATLSCKASQNINDNLDWYQQKPGQAPRPLIYSTNNLKTGIPARFSGSGSGTDFTLTISSLQPEDFAVYYCYQYKSAWTFGQGTKVEIK
– | 0.17 | HC6_LC_k3_9 (antibody, V domains shown) VH: EVQLVESGGGLVQPGGSLRLSCAASGFTFSNAAMYWVRQAPGKGLELVSRIRTKPNNYATYHADSVKGRFTISRDDSKNTLYLQMNSLRAEDTAVYYCTADMATGDYWGQGTLVTVSS VL: EIVMTQSPATLSLSPGERATLSCKASQGISNYLAWYQQKPGQAPRPLIYSTNNLKTGIPARFSGSGSGTDFTLTISSLQPEDFAVYYCYQYKSAWTFGQGTKVEIK
– | 0.24 | HC6_LC_k3_11 (antibody, V domains shown) VH: EVQLVESGGGLVQPGGSLRLSCAASGFTFSNAAMYWVRQAPGKGLELVSRIRTKPNNYATYHADSVKGRFTISRDDSKNTLYLQMNSLRAEDTAVYYCTADMATGDYWGQGTLVTVSS VL: EIVMTQSPATLSLSPGERATLSCKASQNISNQLDWYQQKPGQAPRPLIYSTNNLKTGIPARFSGSGSGTDFTLTISSLQPEDFAVYYCYQYKSAWTFGQGTKVEIK
– | 0.14 | HC6_LC_k3_6 (antibody, V domains shown) VH: EVQLVESGGGLVQPGGSLRLSCAASGFTFSNAAMYWVRQAPGKGLELVSRIRTKPNNYATYHADSVKGRFTISRDDSKNTLYLQMNSLRAEDTAVYYCTADMATGDYWGQGTLVTVSS VL: EIVMTQSPATLSLSPGERATLSCKASANINKQLDWYQQKPGQAPRPLIYSTNNLKTGIPARFSGSGSGTDFTLTISSLQPEDFAVYYCYQYKSAWTFGQGTKVEIK
– | 0.21 | HC6_LC_k3_5 (antibody, V domains shown) VH: EVQLVESGGGLVQPGGSLRLSCAASGFTFSNAAMYWVRQAPGKGLELVSRIRTKPNNYATYHADSVKGRFTISRDDSKNTLYLQMNSLRAEDTAVYYCTADMATGDYWGQGTLVTVSS VL: EIVMTQSPATLSLSPGERATLSCKASQNINKQLDWYQQKPGQAPRPLIYSTNNLKTGIPARFSGSGSGTDFTLTISSLQPEDFAVYYCYQYKSAWTFGQGTKVEIK
– | 0.22 | HC6_LC_k3_8 (antibody, V domains shown) VH: EVQLVESGGGLVQPGGSLRLSCAASGFTFSNAAMYWVRQAPGKGLELVSRIRTKPNNYATYHADSVKGRFTISRDDSKNTLYLQMNSLRAEDTAVYYCTADMATGDYWGQGTLVTVSS VL: EIVMTQSPATLSLSPGERATLSCKASQGISNYLDWYQQKPGQAPRPLIYSTNNLKTGIPARFSGSGSGTDFTLTISSLQPEDFAVYYCYQYKSAWTFGQGTKVEIK
– | 0.17 | HC6_LC_k3_13 (antibody, V domains shown) VH: EVQLVESGGGLVQPGGSLRLSCAASGFTFSNAAMYWVRQAPGKGLELVSRIRTKPNNYATYHADSVKGRFTISRDDSKNTLYLQMNSLRAEDTAVYYCTADMATGDYWGQGTLVTVSS VL: EIVMTQSPATLSLSPGERATLSCKASQNINANLDWYQQKPGQAPRPLIYSTNNLKTGIPARFSGSGSGTDFTLTISSLQPEDFAVYYCYQYKSAWTFGQGTKVEIK
